Assay results from US8901076 (Molecular Partners, dated 2014).

Molecular target: VEGF-A165 (UniProt P15692 27-191)
Assay: cell-based or functional assay

Chain of VEGF-A165 (P15692 other isoform, or with tags, fused parts or gaps): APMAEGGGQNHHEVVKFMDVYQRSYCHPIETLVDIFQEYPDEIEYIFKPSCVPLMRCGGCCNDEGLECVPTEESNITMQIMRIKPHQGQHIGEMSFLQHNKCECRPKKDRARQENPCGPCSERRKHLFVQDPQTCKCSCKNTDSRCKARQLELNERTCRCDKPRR

B1: DARPin #30 (designed binder)
chain: GSDLGKKLLEAARAGQDDEVRILMANGADVNTADSTGWTPLHLAVPWGHLEIVEVLLKYGADVNAKDFQGWTPLHLAAAIGHQEIVEVLLKNGADVNAQDKFGKTAFDISIDNGNEDLAEILQKAA
For B1, the “IC50 (read off the curve); sprout length of VEGF-A165 stimulated HUVEC spheroids” value was about 0.03 nM.
